± gives the uncertainty stated by the source.
B1: KAT8 regulatory NSL complex subunit 2, residues 28 to 91; numbered along this chain, Q9H9L4 (parent)
chain: CAFTHRPCSHPRLEGQEFCIKHILEDKNAPFKQCSYISTKNGKRCPNAAPKPEKKDGVSFCAEH

Variants of: B1
Test: abundance fitness (aPCA) (normalised: wild type 0, dead -1); higher = more abundant; growth selection in yeast, the domain comes from the species named
Details: Homo sapiens

Variant	abundance fitness
CAFTHRPCSHPRLEGQEKCIKHILEDKNAPFKQCSYISTKNGKRCPNAAPKPEKKDGVSFCAEH [F18K]	-0.472 ± 0.093
CAFTHRPCSHPRLEGQELCIKHILEDKNAPFKQCSYISTKNGKRCPNAAPKPEKKDGVSFCAEH [F18L]	-0.139 ± 0.052
CAFTHRPCSHPRLEGQEMCIKHILEDKNAPFKQCSYISTKNGKRCPNAAPKPEKKDGVSFCAEH [F18M]	-0.196 ± 0.063
CAFTHRPCSHPRLEGQENCIKHILEDKNAPFKQCSYISTKNGKRCPNAAPKPEKKDGVSFCAEH [F18N]	-0.61 ± 0.1
CAFTHRPCSHPRLEGQEQCIKHILEDKNAPFKQCSYISTKNGKRCPNAAPKPEKKDGVSFCAEH [F18Q]	-0.642 ± 0.12
CAFTHRPCSHPRLEGQERCIKHILEDKNAPFKQCSYISTKNGKRCPNAAPKPEKKDGVSFCAEH [F18R]	-0.325 ± 0.041
CAFTHRPCSHPRLEGQESCIKHILEDKNAPFKQCSYISTKNGKRCPNAAPKPEKKDGVSFCAEH [F18S]	-0.59 ± 0.055
CAFTHRPCSHPRLEGQETCIKHILEDKNAPFKQCSYISTKNGKRCPNAAPKPEKKDGVSFCAEH [F18T]	-0.408 ± 0.053
CAFTHRPCSHPRLEGQEVCIKHILEDKNAPFKQCSYISTKNGKRCPNAAPKPEKKDGVSFCAEH [F18V]	-0.509 ± 0.062
CAFTHRPCSHPRLEGQEWCIKHILEDKNAPFKQCSYISTKNGKRCPNAAPKPEKKDGVSFCAEH [F18W]	-0.356 ± 0.073
CAFTHRPCSHPRLEGQEYCIKHILEDKNAPFKQCSYISTKNGKRCPNAAPKPEKKDGVSFCAEH [F18Y]	-0.11 ± 0.084
CAFTHRPCSHPRLEGQEFAIKHILEDKNAPFKQCSYISTKNGKRCPNAAPKPEKKDGVSFCAEH [C19A]	-0.973 ± 0.061
CAFTHRPCSHPRLEGQEFDIKHILEDKNAPFKQCSYISTKNGKRCPNAAPKPEKKDGVSFCAEH [C19D]	-0.994 ± 0.13
CAFTHRPCSHPRLEGQEFEIKHILEDKNAPFKQCSYISTKNGKRCPNAAPKPEKKDGVSFCAEH [C19E]	-1 ± 0.08
CAFTHRPCSHPRLEGQEFFIKHILEDKNAPFKQCSYISTKNGKRCPNAAPKPEKKDGVSFCAEH [C19F]	-1.16 ± 0.37
CAFTHRPCSHPRLEGQEFGIKHILEDKNAPFKQCSYISTKNGKRCPNAAPKPEKKDGVSFCAEH [C19G]	-0.941 ± 0.056
CAFTHRPCSHPRLEGQEFHIKHILEDKNAPFKQCSYISTKNGKRCPNAAPKPEKKDGVSFCAEH [C19H]	-1.63 ± 0.37
CAFTHRPCSHPRLEGQEFIIKHILEDKNAPFKQCSYISTKNGKRCPNAAPKPEKKDGVSFCAEH [C19I]	-1.19 ± 0.069
CAFTHRPCSHPRLEGQEFKIKHILEDKNAPFKQCSYISTKNGKRCPNAAPKPEKKDGVSFCAEH [C19K]	-0.572 ± 0.091
CAFTHRPCSHPRLEGQEFMIKHILEDKNAPFKQCSYISTKNGKRCPNAAPKPEKKDGVSFCAEH [C19M]	-1.08 ± 0.091
CAFTHRPCSHPRLEGQEFNIKHILEDKNAPFKQCSYISTKNGKRCPNAAPKPEKKDGVSFCAEH [C19N]	-1.27 ± 0.12

Variant	abundance fitness
CAFTHRPCSHPRLEGQEFPIKHILEDKNAPFKQCSYISTKNGKRCPNAAPKPEKKDGVSFCAEH [C19P]	-0.809 ± 0.11
CAFTHRPCSHPRLEGQEFQIKHILEDKNAPFKQCSYISTKNGKRCPNAAPKPEKKDGVSFCAEH [C19Q]	-0.878 ± 0.08
CAFTHRPCSHPRLEGQEFRIKHILEDKNAPFKQCSYISTKNGKRCPNAAPKPEKKDGVSFCAEH [C19R]	-1.17 ± 0.063
CAFTHRPCSHPRLEGQEFSIKHILEDKNAPFKQCSYISTKNGKRCPNAAPKPEKKDGVSFCAEH [C19S]	-0.851 ± 0.067
CAFTHRPCSHPRLEGQEFTIKHILEDKNAPFKQCSYISTKNGKRCPNAAPKPEKKDGVSFCAEH [C19T]	-0.908 ± 0.07
CAFTHRPCSHPRLEGQEFWIKHILEDKNAPFKQCSYISTKNGKRCPNAAPKPEKKDGVSFCAEH [C19W]	-1.28 ± 0.091
CAFTHRPCSHPRLEGQEFYIKHILEDKNAPFKQCSYISTKNGKRCPNAAPKPEKKDGVSFCAEH [C19Y]	-1.38 ± 0.21
CAFTHRPCSHPRLEGQEFCAKHILEDKNAPFKQCSYISTKNGKRCPNAAPKPEKKDGVSFCAEH [I20A]	-0.048 ± 0.063
CAFTHRPCSHPRLEGQEFCCKHILEDKNAPFKQCSYISTKNGKRCPNAAPKPEKKDGVSFCAEH [I20C]	-0.14 ± 0.064
CAFTHRPCSHPRLEGQEFCDKHILEDKNAPFKQCSYISTKNGKRCPNAAPKPEKKDGVSFCAEH [I20D]	-0.208 ± 0.13
CAFTHRPCSHPRLEGQEFCEKHILEDKNAPFKQCSYISTKNGKRCPNAAPKPEKKDGVSFCAEH [I20E]	-0.129 ± 0.07
CAFTHRPCSHPRLEGQEFCFKHILEDKNAPFKQCSYISTKNGKRCPNAAPKPEKKDGVSFCAEH [I20F]	-0.115 ± 0.074
CAFTHRPCSHPRLEGQEFCGKHILEDKNAPFKQCSYISTKNGKRCPNAAPKPEKKDGVSFCAEH [I20G]	-0.104 ± 0.048
CAFTHRPCSHPRLEGQEFCHKHILEDKNAPFKQCSYISTKNGKRCPNAAPKPEKKDGVSFCAEH [I20H]	-0.179 ± 0.15
CAFTHRPCSHPRLEGQEFCKKHILEDKNAPFKQCSYISTKNGKRCPNAAPKPEKKDGVSFCAEH [I20K]	-0.195 ± 0.084
CAFTHRPCSHPRLEGQEFCLKHILEDKNAPFKQCSYISTKNGKRCPNAAPKPEKKDGVSFCAEH [I20L]	-0.057 ± 0.042
CAFTHRPCSHPRLEGQEFCMKHILEDKNAPFKQCSYISTKNGKRCPNAAPKPEKKDGVSFCAEH [I20M]	-0.031 ± 0.066
CAFTHRPCSHPRLEGQEFCNKHILEDKNAPFKQCSYISTKNGKRCPNAAPKPEKKDGVSFCAEH [I20N]	-0.328 ± 0.21
CAFTHRPCSHPRLEGQEFCPKHILEDKNAPFKQCSYISTKNGKRCPNAAPKPEKKDGVSFCAEH [I20P]	-0.184 ± 0.072
CAFTHRPCSHPRLEGQEFCQKHILEDKNAPFKQCSYISTKNGKRCPNAAPKPEKKDGVSFCAEH [I20Q]	-0.091 ± 0.08
CAFTHRPCSHPRLEGQEFCRKHILEDKNAPFKQCSYISTKNGKRCPNAAPKPEKKDGVSFCAEH [I20R]	-0.117 ± 0.045
